Assay [1] concerns the target HLA-B*27:05. In words: IEDB peptide-MHC binding, purified MHC/direct/fluorescence; filed as Kd, often an IC50 or EC50 that approximates it; ≥ and ≤ were set here for values at or beyond the usual limits of such assays.
For assay [2], the target named is HLA-B*15:17. The assay is described as above.
In assay [3] the target is HLA-B*15:02. Described as above.
The target in assay [4] is HLA-A*11:01. The assay is described as above.
In assay [5] the target is HLA-A*68:02. The assay is described as above.
Assay [6] has as its target HLA-B*15:01. The description is as above.
For assay [7], the target named is HLA-A*01:01. The description is as above.
The target in assay [8] is HLA-A*02:01. Described as above.
Assay [9] addresses HLA-A*31:01. The assay is described as above.
Assay [10] has as its target HLA-B*46:01. Described as above.
For assay [11], the target named is HLA-B*08:01. The assay is described as above.
The target of assay [12] is HLA-B*15:09. Described as above.
Assay [13] has as its target HLA-B*48:01. The description is as above.
Assay [14] addresses HLA-A*69:01. The description is as above.
The target of assay [15] is HLA-B*57:01. The assay is described as above.
The target in assay [16] is HLA-B*07:02. The assay is described as above.
For assay [17], the target named is HLA-A*26:03. The assay is described as above. The settings on record: source organism: Variola virus.
The target of assay [18] is HLA-B*58:01. The description is as above.
Assay [19] concerns the target HLA-B*08:03. The assay is described as above.
Assay [20] has as its target HLA-A*26:01. In words: IEDB peptide-MHC binding, purified MHC/competitive/fluorescence; filed as Kd, often an IC50 or EC50 that approximates it; ≥ and ≤ were set here for values at or beyond the usual limits of such assays. To be noted: source organism: Variola virus.
Assay [21] concerns the target HLA-A*30:01. The assay is described as above.
The target in assay [22] is HLA-B*73:01. In words: IEDB peptide-MHC binding, purified MHC/direct/fluorescence; filed as Kd, often an IC50 or EC50 that approximates it; ≥ and ≤ were set here for values at or beyond the usual limits of such assays. To be noted: source organism: Homo sapiens.
In assay [23] the target is HLA-A*32:07. In words: IEDB peptide-MHC binding, purified MHC/competitive/fluorescence; filed as Kd, often an IC50 or EC50 that approximates it; ≥ and ≤ were set here for values at or beyond the usual limits of such assays. The settings on record: source organism: Homo sapiens.
In assay [24] the target is HLA-B*15:42. The description is as above. The settings on record: source organism: Homo sapiens.
For assay [25], the target named is HLA-B*45:06. The assay is described as above. To be noted: source organism: Homo sapiens.
In assay [26] the target is HLA-B*83:01. Described as above. The settings on record: source organism: Homo sapiens.
Assay [27] deals with HLA-A*03:01. In words: IEDB peptide-MHC binding, purified MHC/direct/fluorescence; filed as Kd, often an IC50 or EC50 that approximates it; ≥ and ≤ were set here for values at or beyond the usual limits of such assays. The settings on record: source organism: Escherichia coli O157:H7.
Assay [28] has as its target HLA-A*26:02. The description is as above. The settings on record: source organism: Escherichia coli O157:H7 str. EC869.
Assay [29] deals with HLA-B*39:01. Described as above. To be noted: source organism: Escherichia coli O157:H7 str. EC869.
The target in assay [30] is HLA-C*12:03. The assay is described as above. The settings on record: source organism: Escherichia coli O157:H7 str. EDL933.
The mark [31] stands for this setting: source organism: Escherichia coli O157:H7.
[32] abbreviates: source organism: Escherichia coli O157:H7 str. EC869.

The term Kd denotes the equilibrium constant for the complex coming apart.

ILQDRIRMY: the Kd in assay [1] (source organism: Cowpox virus) was not below 20 µM; in assay [2] (source organism: Cowpox virus) it was 0.737 µM; in assay [3] (source organism: Variola virus), 0.02 µM; in assay [4] (source organism: Cowpox virus), not below 20 µM; in assay [5] (source organism: Cowpox virus) it was not below 20 µM; in [6] (source organism: Cowpox virus), 0.126 µM. Besides, the Kd in [7] (source organism: Cowpox virus), in assay [8] (source organism: Cowpox virus), in assay [9] (source organism: Cowpox virus), in [10] (source organism: Cowpox virus), in assay [11] (source organism: Variola virus) and in [12] (source organism: Variola virus) was not below 20 µM throughout. Besides, the Kd in assay [13] (source organism: Cowpox virus), in [14] (source organism: Cowpox virus), in assay [15] (source organism: Cowpox virus), in assay [16] (source organism: Cowpox virus), in [17] and in [18] (source organism: Cowpox virus) was not below 20 µM each time. For the same sequence, the dissociation constant Kd in assay [19] (source organism: Variola virus), in assay [20] and in [21] (source organism: Variola virus) was not below 20 µM each time.

Turning to MAWLFFWAI, the Kd was not below 20 µM in [22]; 3.39 µM in [23]; not below 5 µM in assay [24]; not below 5 µM in assay [25]; not below 5 µM in [26].

Regarding YQAFRTKVH, the Kd in assay [1] (setting [31]) was not below 20 µM; in assay [2] (setting [31]), not below 20 µM; in assay [3] (setting [31]), not below 20 µM; in assay [4] (setting [31]), not below 20 µM; in assay [5] (setting [31]), not below 20 µM; in [6] (setting [31]) it was 0.01 µM. Also, the Kd in assay [7] (setting [31]), in [8] (setting [31]), in assay [27], in assay [9] (setting [31]), in [28] and in assay [10] (setting [31]) was not below 20 µM throughout. Besides, the Kd is not below 20 µM in [11] (setting [32]); not below 20 µM in [29]; not below 20 µM in assay [12] (setting [32]); 0.204 µM in [30]; not below 20 µM in [13] (setting [31]); not below 20 µM in [14] (setting [31]). For the same sequence, the Kd in [15] (setting [31]), in assay [16] (setting [31]), in assay [18] (setting [31]), in assay [19] (setting [32]) and in assay [21] (source organism: Escherichia coli O157:H7 str. EDL933) was not below 20 µM throughout.
